According to US20200289608A1 (FUJITA ACADEMY, published 2020):
Where no end group is shown, it is not given here.

Molecular target: T1, cyclic nucleotide-gated channel beta 3 (CNGB3) (human, UniProt Q9NQW8 1-809, limits assumed)
T1 construct: Endogenous protein in patient material; also called human CNGB3
T1 sequence (looked up): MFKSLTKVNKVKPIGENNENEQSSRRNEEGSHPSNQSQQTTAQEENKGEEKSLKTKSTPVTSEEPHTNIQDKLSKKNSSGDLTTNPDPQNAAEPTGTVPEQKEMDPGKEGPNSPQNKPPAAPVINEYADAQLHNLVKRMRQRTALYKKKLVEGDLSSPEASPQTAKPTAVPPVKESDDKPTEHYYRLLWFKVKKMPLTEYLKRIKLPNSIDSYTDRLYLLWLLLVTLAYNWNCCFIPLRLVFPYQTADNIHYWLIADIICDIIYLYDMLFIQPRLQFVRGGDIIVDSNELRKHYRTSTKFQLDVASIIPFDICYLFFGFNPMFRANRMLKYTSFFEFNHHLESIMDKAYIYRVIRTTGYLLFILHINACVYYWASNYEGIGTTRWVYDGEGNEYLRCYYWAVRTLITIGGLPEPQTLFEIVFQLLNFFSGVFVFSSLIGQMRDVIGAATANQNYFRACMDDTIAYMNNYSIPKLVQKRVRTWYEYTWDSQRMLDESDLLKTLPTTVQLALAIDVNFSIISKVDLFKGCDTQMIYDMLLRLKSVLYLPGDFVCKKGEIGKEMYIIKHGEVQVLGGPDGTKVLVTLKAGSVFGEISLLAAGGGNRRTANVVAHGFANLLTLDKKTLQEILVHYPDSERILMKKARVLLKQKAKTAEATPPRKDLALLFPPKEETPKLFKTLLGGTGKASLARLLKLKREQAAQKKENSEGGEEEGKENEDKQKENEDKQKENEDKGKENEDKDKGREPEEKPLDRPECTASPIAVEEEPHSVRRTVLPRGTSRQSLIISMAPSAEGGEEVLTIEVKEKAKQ
Experiment: avidin blotting: serum exosome proteins after SDS-PAGE on PVDF, probed with 1.0 ug/mL biotinylated Z13 peptide and HRP-avidin
Experimental: The exosome was isolated from the serum using Exosome Isolation Kit (manufactured by Fujifilm Wako Pure Chemical Industries, Ltd.) according to the manufacturer's instruction. Specifically, first, the serum was centrifuged at 1,000×g at 4° C.° for 20 minutes, and the supernatant was recovered. The collected supernatant was centrifuged at 10,000×g at 4° C. for 30 minutes, and the supernatant was transferred to a new tube. Subsequently, 1.0 mL of the supernatant was mixed with exosome capture beads with a rotator at 4° C. for 180 minutes. Subsequently, after washing the capture beads, the exosome was eluted with 100 μL of an elution buffer and stored at −20° C.
An exosome isolated from 800 μL of serum was mixed with a concentrated Laemmli buffer to prepare a measurement sample. The measurement sample was isolated by SDS-PAGE and then transferred to a PVDF membrane. The PVDF membrane was blocked in 5% BSA-containing TBST (0.1 v/v % Tween-20) at room temperature for 60 minutes. The PVDF membrane after blotting was washed and incubated overnight at 4° C.° in 1.0 μg/mL of biotinylated Z13 peptide-containing TBST. […] The CNGB3 on the membrane was detected using a CCD camera system (manufactured by ATTO) and ECL prime (manufactured by GE Healthcare). […]

binding result: binds
B1: biotinylated Z13 peptide (peptide)
peptide: VRRADNRPG
modifications: also: biotin bound, position not given here
notes: Synthesized by GenScript; used at 1.0 ug/mL as the probe in avidin blotting, detected with HRP-avidin
